Patent publication US20140179604A1 (U S A REPRESENTED BY THE DEPARTMENT OF VETERANS AFFAIRS, published 2014)
Non-standard residues stand in square brackets, D forms with d. No end group written: not given here. *: point of attachment. Desaminotyrosyl = O=C(CCc1ccc(O)cc1)*; NMeY = CN[C@@H](Cc1ccc(O)cc1)C(=O)O; Agmatine = N=C(N)NCCCCN*; Nle = CCCC[C@H](N)C(=O)O; Orn = NCCC[C@H](N)C(=O)O; Abu = CC[C@H](N)C(=O)O; Ava = NCCCCC(=O)O

T1: GHRH receptor (membrane receptors of human anterior pituitary cells) (human, UniProt Q02643 23-423)
T1 construct: whole, on cells; Native receptor in a membrane fraction of purchased normal human pituitaries, not intact cells; also called hGHRH receptor; human pituitary membrane homogenates
T1 sequence (looked up): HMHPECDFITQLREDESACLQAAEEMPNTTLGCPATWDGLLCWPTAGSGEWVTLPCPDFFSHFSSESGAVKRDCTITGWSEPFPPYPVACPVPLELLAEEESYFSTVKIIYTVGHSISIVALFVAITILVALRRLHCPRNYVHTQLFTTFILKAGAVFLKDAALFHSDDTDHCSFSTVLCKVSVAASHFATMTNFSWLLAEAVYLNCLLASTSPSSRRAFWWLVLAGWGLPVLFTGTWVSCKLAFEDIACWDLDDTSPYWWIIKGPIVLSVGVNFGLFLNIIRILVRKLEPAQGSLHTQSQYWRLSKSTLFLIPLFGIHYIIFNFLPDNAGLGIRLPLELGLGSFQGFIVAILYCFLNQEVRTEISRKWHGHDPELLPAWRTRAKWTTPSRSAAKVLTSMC

T2: GHRH receptor (membrane receptors of human anterior pituitary cells) (human) (UniProt Q02643)
T2 sequence (looked up): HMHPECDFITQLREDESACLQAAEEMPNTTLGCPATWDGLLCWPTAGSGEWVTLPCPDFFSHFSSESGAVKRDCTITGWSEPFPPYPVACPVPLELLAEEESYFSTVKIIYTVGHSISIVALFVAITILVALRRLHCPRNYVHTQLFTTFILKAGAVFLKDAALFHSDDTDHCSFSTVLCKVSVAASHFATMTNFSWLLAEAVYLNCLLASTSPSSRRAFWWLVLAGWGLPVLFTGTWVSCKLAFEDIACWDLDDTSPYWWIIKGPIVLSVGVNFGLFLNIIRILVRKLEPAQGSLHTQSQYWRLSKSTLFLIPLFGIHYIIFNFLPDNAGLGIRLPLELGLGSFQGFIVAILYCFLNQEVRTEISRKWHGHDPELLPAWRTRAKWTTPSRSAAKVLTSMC


How the values were obtained:
[1] = biological target: T1, GHRH receptor (membrane receptors of …); assay: competition with 125I-JV-1-42, human pituitary membranes
Source text: Normal human pituitaries were purchased from the National Hormone and Peptide Program (A. F. Parlow, Los Angeles, County Harbor-UCLA Medical Center, Torrance, Calif.).

[2] = biological target: T1, GHRH receptor (membrane receptors of …); assay: competition with 125I-[His1,Nle27]hGHRH(1-32)NH2, human pituitary membranes
Source text: Normal human pituitary was purchased from the National Hormone and Peptide Program (UCLA Medical Center, Torrance, Calif.).

[3] = biological target: T2, GHRH receptor (membrane receptors of human anterior pituitary cells) (human); assay: competition with 125I-JV-1-42, human pituitary membranes

IC50 [1] [nM]	Relative affinity (Binding potency) vs JI-38 [1] [JI-38 = 1]	IC50 [2] [nM]	Relative affinity (Binding potency) compared to JI-38 [2] [JI-38 = 1]	Relative affinity (Binding potency) compared to hGHRH(1-29) [2]	IC50 [3] [nM]	Relative affinity (Binding potency) vs JI-38 [3] [JI-38 = 1]	Binder
3.44	1.26	3.87	0.71	1.98 hGHRH(1-29)NH2 = 1	–	–	Ac-[NMeY][dA]DAIFTQSYR[Orn]VL[Abu]QLSAR[Orn]LLQDI[Nle]D[Agmatine] (SMILES CCCC[C@H](NC(=O)[C@@H](NC(=O)[C@H](CC(=O)O)NC(=O)[C@H](CCC(N)=O)NC(=O)[C@H](CC(C)C)NC(=O)[C@H](CC(C)C)NC(=O)[C@H](CCCN)NC(=O)[C@H](CCCNC(=N)N)NC(=O)[C@H](C)NC(=O)[C@H](CO)NC(=O)[C@H](CC(C)C)NC(=O)[C@H](CCC(N)=O)NC(=O)[C@H](CC)NC(=O)[C@H](CC(C)C)NC(=O)[C@@H](NC(=O)[C@H](CCCN)NC(=O)[C@H](CCCNC(=N)N)NC(=O)[C@H](Cc1ccc(O)cc1)NC(=O)[C@H](CO)NC(=O)[C@H](CCC(N)=O)NC(=O)[C@@H](NC(=O)[C@H](Cc1ccccc1)NC(=O)[C@@H](NC(=O)[C@H](C)NC(=O)[C@H](CC(=O)O)NC(=O)[C@@H](C)NC(=O)[C@H](Cc1ccc(O)cc1)N(C)C(C)=O)[C@@H](C)CC)[C@@H](C)O)C(C)C)[C@@H](C)CC)C(=O)N[C@@H](CC(=O)O)C(=O)NCCCCNC(=N)N, also called MR-351; Peptide 20351)
0.16	27.2	0.74	3.69	10.3 hGHRH(1-29)NH2 = 1	–	–	[NMeY][dA]DAIFTQSYR[Orn]VL[Abu]QLSAR[Orn]LLQDI[Nle]DR-NHMe [P-27403 [N-Me-Tyr^1, D-Ala^2, Gln^8, Orn^12, Abu^15, Orn^21, Nle^27, Asp^28]hGHRH(1-29)NH-CH3]
–	–	–	–	–	3.02	1.44	YADAIFTNSYRKVLGQLSARKLLQDIMSRQ (peptide, from a related filing, N-Me-Tyr^1; Orn^12; Abu^15; Orn^21; Nle^27; Gab^30 (in place of Gln^30); C-terminal -NH-CH3) [P-27415 [N-Me-Tyr^1, Orn^12, Abu^15, Orn^21, Nle^27, Gab^30]hGHRH(1-30)NH-CH3]
2.74	1.59	2.6	1.05	2.94 hGHRH(1-29)NH2 = 1	–	–	[Desaminotyrosyl][dA]DAIFTQSYR[Orn]VL[Abu]QLSAR[Orn]LLQDI[Nle]D[dR]-NHMe (SMILES CCCC[C@H](NC(=O)[C@@H](NC(=O)[C@H](CC(=O)O)NC(=O)[C@H](CCC(N)=O)NC(=O)[C@H](CC(C)C)NC(=O)[C@H](CC(C)C)NC(=O)[C@H](CCCN)NC(=O)[C@H](CCCNC(=N)N)NC(=O)[C@H](C)NC(=O)[C@H](CO)NC(=O)[C@H](CC(C)C)NC(=O)[C@H](CCC(N)=O)NC(=O)[C@H](CC)NC(=O)[C@H](CC(C)C)NC(=O)[C@@H](NC(=O)[C@H](CCCN)NC(=O)[C@H](CCCNC(=N)N)NC(=O)[C@H](Cc1ccc(O)cc1)NC(=O)[C@H](CO)NC(=O)[C@H](CCC(N)=O)NC(=O)[C@@H](NC(=O)[C@H](Cc1ccccc1)NC(=O)[C@@H](NC(=O)[C@H](C)NC(=O)[C@H](CC(=O)O)NC(=O)[C@@H](C)NC(=O)CCc1ccc(O)cc1)[C@@H](C)CC)[C@@H](C)O)C(C)C)[C@@H](C)CC)C(=O)N[C@@H](CC(=O)O)C(=O)N[C@H](CCCNC(=N)N)C(=O)NC, also called MR-401) [P-27401 [Dat^1, D-Ala^2, Gln^8, Orn^12, Abu^15, Orn^21, Nle^27, Asp^28, D-Arg^29]hGHRH(1-29)NH-CH3]
–	–	–	–	–	3.8	1.14	[NMeY]ADAIFTQSYR[Orn]VL[Abu]QLSAR[Orn]LLQDI[Nle]DR[Ava]-NH2 (peptide, from a related filing, N-terminus assumed; SMILES CCCC[C@H](NC(=O)[C@@H](NC(=O)[C@H](CC(=O)O)NC(=O)[C@H](CCC(N)=O)NC(=O)[C@H](CC(C)C)NC(=O)[C@H](CC(C)C)NC(=O)[C@H](CCCN)NC(=O)[C@H](CCCNC(=N)N)NC(=O)[C@H](C)NC(=O)[C@H](CO)NC(=O)[C@H](CC(C)C)NC(=O)[C@H](CCC(N)=O)NC(=O)[C@H](CC)NC(=O)[C@H](CC(C)C)NC(=O)[C@@H](NC(=O)[C@H](CCCN)NC(=O)[C@H](CCCNC(=N)N)NC(=O)[C@H](Cc1ccc(O)cc1)NC(=O)[C@H](CO)NC(=O)[C@H](CCC(N)=O)NC(=O)[C@@H](NC(=O)[C@H](Cc1ccccc1)NC(=O)[C@@H](NC(=O)[C@H](C)NC(=O)[C@H](CC(=O)O)NC(=O)[C@H](C)NC(=O)[C@H](Cc1ccc(O)cc1)NC)[C@@H](C)CC)[C@@H](C)O)C(C)C)[C@@H](C)CC)C(=O)N[C@@H](CC(=O)O)C(=O)N[C@@H](CCCNC(=N)N)C(=O)NCCCCC(N)=O) [P-22325 [N-Me-Tyr^1, Gln^8, Orn^12, Abu^15, Orn^21, Nle^27, Asp^28, Apa^30]hGHRH(1-30)NH2]
